Our source for the binding result and Kd values is paper doi:10.1101/2025.07.17.665365, “A protein-dependent riboswitch activates ribosomal frameshifting in cardioviruses”.

In data set [1] the target is T1, TMEV 2A (Theiler's murine encephalitis virus …, UniProt P08545 923-1055).
T1 sequence: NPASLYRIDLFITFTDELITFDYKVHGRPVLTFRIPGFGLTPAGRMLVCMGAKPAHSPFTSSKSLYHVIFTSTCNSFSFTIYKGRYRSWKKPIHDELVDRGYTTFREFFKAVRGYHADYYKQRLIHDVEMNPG
The data set is described as follows: EMSA; EMSA: 10 mM Tris-HCl pH 7.4, ~140 mM NaCl, 2 mM Mg acetate, 1 mM DTT, 5% glycerol, 50 nM RNA, 37 C; MST: 20 mM Tris-HCl pH 7.4, 400 mM NaCl, 1 mM MgCl2, 1 mM DTT, 0.05% Tween-20, 0.1 mg/ml tRNA, 22 C; smFRET: 10 mM Tris-HCl pH 7.4, 150 mM NaCl, 1 mM MgCl2, 1 mM DTT, 0.1 mg/ml BSA, ambient. Conditions: protein: recombinant, tags: His6-MBP, TEV-cleaved/removed, label: 5' Cy5 or AzDye647. (In EMSA bound probe runs differently from free probe, usually more slowly.)

Data set [2] addresses T1, TMEV 2A. Nature of the data set: EMSA; range given jointly for +1 and -1 bp; EMSA: 10 mM Tris-HCl pH 7.4, ~140 mM NaCl, 2 mM Mg acetate, 1 mM DTT, 5% glycerol, 50 nM RNA, 37 C; MST: 20 mM Tris-HCl pH 7.4, 400 mM NaCl, 1 mM MgCl2, 1 mM DTT, 0.05% Tween-20, 0.1 mg/ml tRNA, 22 C; smFRET: 10 mM Tris-HCl pH 7.4, 150 mM NaCl, 1 mM MgCl2, 1 mM DTT, 0.1 mg/ml BSA, ambient. The note with it: protein: recombinant, tags: His6-MBP, TEV-cleaved/removed, label: 5' Cy5 or AzDye647.

Data set [3] concerns the target T1, TMEV 2A. The data set is described as follows: smFRET; 0.5 uM 2A; E 0.58 to 0.83; EMSA: 10 mM Tris-HCl pH 7.4, ~140 mM NaCl, 2 mM Mg acetate, 1 mM DTT, 5% glycerol, 50 nM RNA, 37 C; MST: 20 mM Tris-HCl pH 7.4, 400 mM NaCl, 1 mM MgCl2, 1 mM DTT, 0.05% Tween-20, 0.1 mg/ml tRNA, 22 C; smFRET: 10 mM Tris-HCl pH 7.4, 150 mM NaCl, 1 mM MgCl2, 1 mM DTT, 0.1 mg/ml BSA, ambient. The note with it: protein: recombinant; tags: His6-MBP, TEV-cleaved/removed; label: 5' Cy5; U31 Cy3; stem-loop / pseudoknot.

The target in data set [4] is T1, TMEV 2A. The data set is described as follows: X-ray crystallography; 1.9 A; pseudoknot; EMSA: 10 mM Tris-HCl pH 7.4, ~140 mM NaCl, 2 mM Mg acetate, 1 mM DTT, 5% glycerol, 50 nM RNA, 37 C; MST: 20 mM Tris-HCl pH 7.4, 400 mM NaCl, 1 mM MgCl2, 1 mM DTT, 0.05% Tween-20, 0.1 mg/ml tRNA, 22 C; smFRET: 10 mM Tris-HCl pH 7.4, 150 mM NaCl, 1 mM MgCl2, 1 mM DTT, 0.1 mg/ml BSA, ambient. The note with it: protein: recombinant; tags: His6-MBP, TEV-cleaved/removed; stem-loop alone.

Data set [5] addresses T1, TMEV 2A. The data set is described as follows: smFRET; 0.5 uM 2A; E 0.85 to 0.63; EMSA: 10 mM Tris-HCl pH 7.4, ~140 mM NaCl, 2 mM Mg acetate, 1 mM DTT, 5% glycerol, 50 nM RNA, 37 C; MST: 20 mM Tris-HCl pH 7.4, 400 mM NaCl, 1 mM MgCl2, 1 mM DTT, 0.05% Tween-20, 0.1 mg/ml tRNA, 22 C; smFRET: 10 mM Tris-HCl pH 7.4, 150 mM NaCl, 1 mM MgCl2, 1 mM DTT, 0.1 mg/ml BSA, ambient. The note with it: protein: recombinant; tags: His6-MBP, TEV-cleaved/removed; label: 5' Cy5; 3' Cy3; stem-loop / pseudoknot.

In data set [6] the target is T1, TMEV 2A. The data set is described as follows: SEC-SAXS; SASDWS5; EMSA: 10 mM Tris-HCl pH 7.4, ~140 mM NaCl, 2 mM Mg acetate, 1 mM DTT, 5% glycerol, 50 nM RNA, 37 C; MST: 20 mM Tris-HCl pH 7.4, 400 mM NaCl, 1 mM MgCl2, 1 mM DTT, 0.05% Tween-20, 0.1 mg/ml tRNA, 22 C; smFRET: 10 mM Tris-HCl pH 7.4, 150 mM NaCl, 1 mM MgCl2, 1 mM DTT, 0.1 mg/ml BSA, ambient. The note with it: protein: recombinant; tags: His6-MBP, TEV-cleaved/removed; 7 bp stem-loop with unpaired 5' tail alone; pseudoknot in complex. In general terms: Size exclusion chromatography separates by hydrodynamic size, large species first.

For CAAUUUUCGGUGCUAACUAAAUAAAUAGCACCCC (structured_RNA) [UA stem 1], the binding result with TMEV 2A [1] (stem-loop / pseudoknot) is “no binding”. For the molecule CAAGGUGGGGUGCUUACUAAAUCCCAAGCACCCC (structured_RNA) [+1 bp stem 2], the dissociation constant Kd (usually the equilibrium constant for the complex coming apart) in the data set with TMEV 2A [2] (8 bp S2) is about 442 nM. For CAAGGUGCGGUGCUAACUAAAUGCCUAGCACCCC (structured_RNA) [C36G], the binding result with TMEV 2A [1] (stem-loop) was “no binding”. CAAGGUGCGGUGCUAACUAAAUCCCUAGCACCCC (structured_RNA, U31 Cy3 (internal)) [TMEV internal reporter RNA]: the binding result in the data set with TMEV 2A [3] is reported as “binds”. On to CAAGGUGCGGUGCUAACUAAAUCCCUAGCACCCC (structured_RNA) [TMEV minimal stimulatory element (oligo 1)], for which the binding result with TMEV 2A [4] was “binds”. Regarding CAAGGUGCGGUGCUAACUAAAUCCCUAGCACCCC (structured_RNA) [TMEV end reporter RNA], in the data set with TMEV 2A [5], the binding result was “binds”. Take CAAGGUGCGGUGCUAACUAAAUCGCUAGCACCCC (structured_RNA) [C37G]: the binding result in the data set with TMEV 2A [1] (stem-loop) is listed as “no binding”. For the molecule CCACAAGGUGCGGUGCUAACUAAAUCCCUAGCACCCC (structured_RNA) [TMEV stimulatory element, SAXS RNA], the binding result in the data set with TMEV 2A [6] is reported as “binds”. For CAAGGUGCGGUGCUACUAAAUCCCAGCACCCC (structured_RNA) [-1 bp stem 2], the Kd with TMEV 2A [2] (6 bp S2) is about 442 nM. CAAGGUGCCCACGAUACUAAAUCCCAUCGUGGCC (structured_RNA) [Stem 2 swap]: the Kd in the data set with TMEV 2A [1] (stem-loop / pseudoknot) is about 313 nM.

For the molecule CAAAAUACGGUGCUAACUAAAUUUUUAGCACCCC (structured_RNA) [AU stem 1], the binding result with TMEV 2A [1] (stem-loop / pseudoknot) is recorded as “no binding”. With CAAGGUGCGGUGCACUAAAUCCCGCACCCC (structured_RNA) [-2 bp stem 2], the binding result with TMEV 2A [1] (5 bp S2) is recorded as “no binding”. Consider CAAGGGCGGUGCUAACUAAAUCCCUAGCACCCC (structured_RNA) [dU19 stem 1], for which, in the data set with TMEV 2A [1] (stem-loop / pseudoknot), the binding result was “no binding”. On to CAACCUCCGGUGCUAACUAAAUGGGUAGCACCCC (structured_RNA) [Stem 1 swap], for which, in the data set with TMEV 2A [1] (stem-loop / pseudoknot), the binding result was “no binding”.
